Results: patent publication US20030176671A1 (SANFORD BURNHAM MEDICAL RESEARCH INSTITUTE, published 2003)
Residue numbers refer to the chain shown, from its start.

Key:
GFP-Bak = target: T1, GFP-Bak (UniProt Q16611 1-211); experiment: co-immunoprecipitation from transfected 293T cell lysates, immunoblot
T1 construct: also called pEGFP-Bak; not shown: EGFP from a pEGFP vector
T1 sequence (looked up): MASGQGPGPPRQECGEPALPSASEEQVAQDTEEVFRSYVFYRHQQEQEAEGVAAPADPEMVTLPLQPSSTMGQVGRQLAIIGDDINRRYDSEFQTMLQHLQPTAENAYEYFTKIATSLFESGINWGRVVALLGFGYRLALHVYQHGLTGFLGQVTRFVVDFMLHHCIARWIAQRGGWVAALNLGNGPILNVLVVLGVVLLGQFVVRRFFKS

Bax = target: T2, Bax (UniProt Q07812 1-192, limits assumed); experiment: co-immunoprecipitation with anti-Myc beads from HEK293T lysates, anti-Bax immunoblot (FIG. 4A)
T2 construct: also called pcDNA3-Bax
T2 sequence (Q07812 whole entry): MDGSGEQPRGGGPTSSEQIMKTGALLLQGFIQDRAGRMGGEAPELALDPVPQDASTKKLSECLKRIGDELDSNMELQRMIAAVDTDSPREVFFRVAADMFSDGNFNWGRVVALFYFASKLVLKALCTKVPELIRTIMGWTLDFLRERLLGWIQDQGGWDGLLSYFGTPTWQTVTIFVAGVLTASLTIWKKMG
Description: 293T cells (5×10₆) cultured with 50 uM […]-Val-Ala-Asp-fluoromethylketone (ZVAD-fmk, Bachem) were co-transfected with 1.5 ug of pcDNA3-Myc-Bcl-B, pcl-Neo-Flag-Bcl-B, pcDNA3-hCBP (Human Calcyclin Binding Protein) (used as a control), or pcDNA3-Flag-BCI-XL, together with 1.5 ug of pEGFP, pEGFP-Bcl-B, pcDNA3-HA-BAG1, pcDNA3-HA-Bax, pcDNA3-Flag-Bcl-XL, pRC-CMV-Bcl-2 or pEGFP-Bak. At 24 hrs post-transfection, cells were collected and resuspended in lysis buffer (142.4 mM KCI, 5 mM MgCl₂, 10 MM HEPES (pH 7.4), 0.5 mM EGTA, 0.2% NP-40) containing 12.5 mM p-glycerophosphate, 2 mM NaF, 1 mM Na₃VO₄, 1 mM DTT, 1 mM PMSF and a protease inhibitor mixture (Boehringer Mannheim). Soluble lysates were incubated with 10 ul anti-Myc (Santa Cruz) or anti-Flag (Sigma) antibody conjugated Sepharose beads overnight at 4° C. Beads were washed four times in 1.5 ml lysis buffer, and boiled in Laemmli gel-loading solution before performing SDS-PAGE/immunoblotting. The following polyclonal or monoclonal antibodies were used: polyclonal rabbit anti-GFP (Roche), monoclonal rat anti-HA (Roche), monoclonal mouse anti-Flag (Sigma), monoclonal mouse anti-Myc (Santa Cruz), rabbit anti-huBcl—2, or rabbit anti-huBcl-XL (Krajewski, et al., Am. J. Pathol. 145, 515-525 (1994); Krajewski et al., Cancer Res. 54, 5501-5507 (1994)).
Binding studies confirmed that binding between Bcl-B and Bax mediates suppression of apoptosis by Bax. In brief, HEK293T cells were transiently transfected with several Myc-tagged constructs (human calcyclin-binding protein, wildtype Bcl-B, L86A, R96Q, FFR(169-171)AAA, Δ118-133) and cell lysates were prepared and immunoprecipitated with anti-Myc antibody conjugated to beads. Immunoprecipitates were subjected to SDS-PAGE/immunoblot analysis using rabbit polyclonal antibodies specific for Bax (FIG. 4A). To confirm expression of proteins, lysates were subject to immunoblot analysis using antibodies specific for Bax and Myc.

B1: Myc-Bcl-B (other, not shown: small tags and cut ends)
chain: MVDQLRERTTMADPLRERTELLLADYLGYCAREPGTPEPAPSTPEAAVLRSAAARLRQIHRSFFSAYLGYPGNRFELVALMADSVLSDSPGPTWGRVVTLVTFAGTLLERGPLVTARWKKWGFQPRLKEQEGDVARDCQRLVALLSSRLMGQHRAWLQAQGGWDGFCHFFRTPFPLAFWRKQLVQAFLSCLLTTAFIYLWTRLL
notes: Expressed in 293T cells and immunoprecipitated from lysates; also called wildtype Bcl-B; pcDNA3-Myc-Bcl-B
binding result (GFP-Bak): no binding

B2: Myc-Bcl-B L86A (other, not shown: small tags and cut ends)
chain: B1 chain with L86A
notes: Myc-tagged Bcl-B point mutant
binding result (Bax): no binding

B3: Myc-Bcl-B R96Q (other, not shown: small tags and cut ends)
chain: B1 chain with R96Q
notes: Myc-tagged Bcl-B point mutant
binding result (Bax): no binding

B4: Myc-Bcl-B deletion 118-133 (other, not shown: small tags and cut ends)
chain: MVDQLRERTTMADPLRERTELLLADYLGYCAREPGTPEPAPSTPEAAVLRSAAARLRQIHRSFFSAYLGYPGNRFELVALMADSVLSDSPGPTWGRVVTLVTFAGTLLERGPLVTARVARDCQRLVALLSSRLMGQHRAWLQAQGGWDGFCHFFRTPFPLAFWRKQLVQAFLSCLLTTAFIYLWTRLL
notes: also called (delta)118-133
binding result (Bax): no binding
